Results published in patent US20240261333A1 (published 2024).

T1: SYNCRIP (human, UniProt O60506-3 2-562, limits assumed)
T1 construct: also called NP_001153148.1 (+1)
T1 sequence (looked up): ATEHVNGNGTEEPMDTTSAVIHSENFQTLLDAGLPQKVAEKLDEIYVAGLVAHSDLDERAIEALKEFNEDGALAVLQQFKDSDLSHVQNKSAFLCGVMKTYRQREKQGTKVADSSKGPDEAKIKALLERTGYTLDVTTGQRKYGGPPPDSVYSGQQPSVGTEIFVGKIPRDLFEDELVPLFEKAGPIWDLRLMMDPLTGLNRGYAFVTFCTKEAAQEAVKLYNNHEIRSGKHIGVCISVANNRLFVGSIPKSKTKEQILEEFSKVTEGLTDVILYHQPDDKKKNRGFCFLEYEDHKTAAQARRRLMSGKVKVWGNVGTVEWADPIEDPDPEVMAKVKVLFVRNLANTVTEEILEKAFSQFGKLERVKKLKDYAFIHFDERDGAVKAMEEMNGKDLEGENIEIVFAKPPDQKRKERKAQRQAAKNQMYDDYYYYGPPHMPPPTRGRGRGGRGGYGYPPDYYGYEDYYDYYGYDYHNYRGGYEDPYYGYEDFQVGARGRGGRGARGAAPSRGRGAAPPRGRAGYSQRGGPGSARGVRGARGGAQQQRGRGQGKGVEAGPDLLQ

T2: CALML5 (human, UniProt Q9NZT1 2-146)
T2 construct: also called NP_059118.2
T2 sequence (looked up): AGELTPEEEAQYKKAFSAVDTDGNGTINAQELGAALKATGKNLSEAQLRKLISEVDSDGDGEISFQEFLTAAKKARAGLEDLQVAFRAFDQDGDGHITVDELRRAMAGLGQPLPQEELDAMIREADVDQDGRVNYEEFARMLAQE

T3: GEMIN4 (human, UniProt P57678 1-1058)
T3 construct: also called NP_056536.2 (+2)
T3 sequence (looked up): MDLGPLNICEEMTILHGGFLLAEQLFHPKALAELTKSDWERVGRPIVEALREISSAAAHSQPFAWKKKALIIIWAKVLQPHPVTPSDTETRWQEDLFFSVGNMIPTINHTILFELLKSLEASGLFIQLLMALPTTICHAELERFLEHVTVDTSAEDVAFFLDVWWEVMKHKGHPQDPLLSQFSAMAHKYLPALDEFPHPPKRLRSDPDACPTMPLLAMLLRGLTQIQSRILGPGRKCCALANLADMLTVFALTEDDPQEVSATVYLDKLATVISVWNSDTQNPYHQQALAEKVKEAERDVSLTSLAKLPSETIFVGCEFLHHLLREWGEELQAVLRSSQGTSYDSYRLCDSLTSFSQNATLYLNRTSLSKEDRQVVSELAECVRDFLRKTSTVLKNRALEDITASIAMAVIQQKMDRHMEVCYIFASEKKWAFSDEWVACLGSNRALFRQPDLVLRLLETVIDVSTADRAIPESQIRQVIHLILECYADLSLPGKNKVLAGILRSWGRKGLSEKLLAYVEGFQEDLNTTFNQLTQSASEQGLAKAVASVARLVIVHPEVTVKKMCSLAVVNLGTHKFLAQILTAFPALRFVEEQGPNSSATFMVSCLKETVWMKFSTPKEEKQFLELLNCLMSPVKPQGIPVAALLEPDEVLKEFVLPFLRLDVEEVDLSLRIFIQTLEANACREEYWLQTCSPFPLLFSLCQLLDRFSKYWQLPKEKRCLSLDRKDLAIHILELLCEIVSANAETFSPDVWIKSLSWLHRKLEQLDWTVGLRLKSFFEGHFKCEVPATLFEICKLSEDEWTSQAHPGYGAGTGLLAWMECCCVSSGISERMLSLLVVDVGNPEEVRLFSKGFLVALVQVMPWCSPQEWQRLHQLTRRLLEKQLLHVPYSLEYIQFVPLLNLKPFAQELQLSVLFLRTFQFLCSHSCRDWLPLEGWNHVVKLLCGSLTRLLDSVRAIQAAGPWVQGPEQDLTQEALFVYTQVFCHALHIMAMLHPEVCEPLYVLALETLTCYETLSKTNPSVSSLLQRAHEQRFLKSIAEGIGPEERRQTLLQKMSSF

B1: N-terminal FLAG tagged B3GNT2 (enzyme, human, UniProt Q9NY97 1-397, looked up)
chain: MSVGRRRIKLLGILMMANVFIYFIMEVSKSSSQEKNGKGEVIIPKEKFWKISTPPEAYWNREQEKLNRQYNPILSMLTNQTGEAGRLSNISHLNYCEPDLRVTSVVTGFNNLPDRFKDFLLYLRCRNYSLLIDQPDKCAKKPFLLLAIKSLTPHFARRQAIRESWGQESNAGNQTVVRVFLLGQTPPEDNHPDLSDMLKFESEKHQDILMWNYRDTFFNLSLKEVLFLRWVSTSCPDTEFVFKGDDDVFVNTHHILNYLNSLSKTKAKDLFIGDVIHNAGPHRDKKLKYYIPEVVYSGLYPPYAGGGGFLYSGHLALRLYHITDQVHLYPIDDVYTGMCLQKLGLVPEKHKGFRTFDIEEKNKNNICSYVDLMLVHSRKPQEMIDIWSQLQSAHLKC
notes: FLAG-tagged ORF overexpressed in cells; pulled down from lysate with mouse anti-FLAG; also called N-FLAG B3GNT2; N-term FLAG; not shown: N-terminal FLAG tag
B2: N-terminal FLAG tagged B3GNT2 (enzyme, human, UniProt Q9NY97 1-397, looked up)
chain: B1 chain
notes: FLAG-tagged ORF overexpressed in A375 cells; pulled down from the lysate with mouse anti-FLAG; also called N-FLAG B3GNT2; N-term FLAG; not shown: N-terminal FLAG tag

What was measured:
Experiment in all cases: co-IP with anti-FLAG, N-FLAG B3GNT2, mass spectrometry
SYNCRIP = molecular target: T1, SYNCRIP
Protocol: (§1) Cells were plated in 10-cm cell culture dishes and grown to 60-80% confluency. For each condition, two biological replicates were harvested for co-IP. Cells were washed with PBS and 4 mL of lysis buffer (20 mM HEPES, 1% Triton X-100, 150 mM NaCl, 1 mM EDTA, and 10% glycerol) containing protease inhibitor cocktail was added. Cells were scraped and lysate was incubated at 4° C. under rotary agitation for 1 h. Lysate was centrifuged at 14,000×g for 10 min at 4° C. Supernatant was transferred to a new tube and an aliquot was taken as the input. […] For Western blots, 10 μg/mL Chicken Anti-FLAG (Aves labs ET-DY100) and IgY control (R&D Systems AB-101-C) antibodies were biotinylated (Thermo Fisher Scientific 90407) and added to the respective conditions. Lysates with antibodies were incubated at 4° C. under rotary agitation overnight. For each mL of lysate, 50 μL of Pierce Protein A/G Magnetic Beads (Mass spectrometry; Thermo Fisher Scientific 88803) or Pierce Streptavidin Magnetic Beads (Western blot; Thermo Fisher Scientific 88817) was washed twice with lysis buffer. Lysates with antibodies were added to the beads and incubated at 4° C. under rotary agitation for 4 h. Beads were washed with lysis buffer 3 times and resuspended in lysis buffer for storage.
(§2) Magnetic beads were resuspended in 100 mM Tris pH 7.8, reduced, alkylated and digested with trypsin at 37° ° C. overnight. This solution was subjected to solid phase extraction to concentrate the peptides and remove unwanted reagents followed by injection onto a Shimadzu HPLC with fraction collector. Eight fractions were collected and after concentration were injected on a Waters NanoAcquity HPLC equipped with a self-packed Aeris 3 μm C18 analytical column 0.075 mm by 20 cm, (Phenomenex). Peptides were eluted using standard reverse-phase gradients. The effluent from the column was analyzed using a Thermo Orbitrap Elite mass spectrometer (nanospray configuration) operated in a data dependent manner for 54 minutes. The resulting fragmentation spectra were correlated against the known database using Proteome Discover 1.4 (Thermo Fisher Scientific).

RPL38 = RPL38 (human, UniProt P63173 1-70)
Protocol: as §1, §2

RPL23 = RPL23 (human, UniProt P62829 1-140)
Protocol: as §1, §2

CALML5 = molecular target: T2, CALML5
Protocol: as §1, §2

GEMIN4 = molecular target: T3, GEMIN4
Protocol: as §1, §2

TM9SF1 = molecular target: T4, TM9SF1 (human, UniProt O15321-2 28-489, limits assumed)
T4 construct: also called NP_001014842.1 (+1)
T4 sequence (O15321 other isoform, or with tags, fused parts or gaps limits assumed): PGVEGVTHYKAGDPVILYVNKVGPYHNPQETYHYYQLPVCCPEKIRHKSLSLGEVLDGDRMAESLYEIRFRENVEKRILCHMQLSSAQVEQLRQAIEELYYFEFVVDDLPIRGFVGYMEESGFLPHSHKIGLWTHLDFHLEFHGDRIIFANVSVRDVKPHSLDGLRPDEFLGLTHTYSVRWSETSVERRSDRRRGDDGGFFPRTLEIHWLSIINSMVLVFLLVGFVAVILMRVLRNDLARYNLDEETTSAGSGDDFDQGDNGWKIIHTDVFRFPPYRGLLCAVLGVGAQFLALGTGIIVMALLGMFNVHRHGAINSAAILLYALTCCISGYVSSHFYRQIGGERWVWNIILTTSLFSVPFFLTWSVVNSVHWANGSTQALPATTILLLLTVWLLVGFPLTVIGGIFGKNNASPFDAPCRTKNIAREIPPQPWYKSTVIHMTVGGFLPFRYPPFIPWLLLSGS
Protocol: as §1, §2

Binder	co-IP mass spectrometry count (SYNCRIP)	co-IP mass spectrometry count (RPL38)	co-IP mass spectrometry count (RPL23)	co-IP mass spectrometry count (CALML5)	co-IP mass spectrometry count (GEMIN4)	co-IP/MS count, N-term FLAG (TM9SF1)
B1	2	9	7	0	0	–
B2	–	–	–	–	–	0
